Data set [1] concerns the target tau peptide … (pT-231), SEQ ID NO: 29. The data set is described as follows: ELISA on peptide. A general note: In an ELISA, binding on a coated surface is turned into a signal by an enzyme label.
The target of data set [2] is Pintide analogue WFYpSPFLE. The data set is described as follows: fluorescence anisotropy, fluorescein labeled Pintide; high affinity site. For orientation: In fluorescence polarisation assays a small probe gives low polarisation when free and higher when bound to something large.
Data set [3] concerns the target Pintide analogue WFYpSPFLE. Put plainly: fluorescence anisotropy; low affinity site.
Data set [4] deals with pT231 tau peptide (SEQ ID NO: 20). Put plainly: ELISA on peptide.
The target in data set [5] is Pintide analogue WFYpSPFLE. The data set is described as follows: fluorescence anisotropy; high affinity site.
The target in data set [6] is Amyloid Precursor Protein Peptide … (pT-668). The data set is described as follows: ELISA on peptide.
Data set [7] has as its target pT231 tau peptide (SEQ ID NO: 20). Put plainly: ELISA on peptide. This is another data set of the same source.
For data set [8], the target named is Cdc25 Peptide EQPLpTPVTDL. Put plainly: fluorescence anisotropy, GST-WW-domain titrated on fluorescein-labeled peptide.
Data set [9] concerns the target Pintide analogue WFYpSPFLE. The description is as above.
Data set [10] deals with proteins of labeled HeLa cell lysates pretreated with Ser phosphatases (CIP, PP1 and PP2A). Put plainly: pulldown from labeled HeLa lysates pretreated with Ser phosphatases.
Data set [11] has as its target Pintide analogue WFYpSPFLE. The data set is described as follows: fluorescence anisotropy (Table 2 prints 1.0 for the WW-domain).
In another data set the target is GST-WW-domain of Pin1 (UniProt Q13526).

Where two headings read alike, the source gives them in different places.

Chain of Nedd4 WW-domain-1 (P46935 249-282): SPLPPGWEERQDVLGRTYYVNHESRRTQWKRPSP

One may read the Kd as a measure of binding affinity in units of concentration. A lower Kd goes with tighter binding. In the case of “Pin1^R14A (from UniProt Q13526 1-163) (enzyme)”, the Binding (OD@405 nm) in [1] amounted to 1.3 OD@405 nm. In data set [2], this substance returned a Kd of 2000 nM.

“GST-Pin1^W34A (from UniProt Q13526 1-163) (enzyme)” returned a Kd in [3] of 14000 nM.

For “Pin1 (from UniProt Q13526 1-163) (enzyme)”, the Kd in data set [4] came to 25 nM; in [5], 1200 nM; in data set [7] it was 40 nM; in data set [2], 1200 nM; in [3] it was 11000 nM. Further, the Binding (OD@405 nm) in data set [6] stood at 1.81 OD@405 nm; in data set [7], 1.46 OD@405 nm.

For the substance “GST-Pin1^S16A (from UniProt Q13526 1-163) (enzyme)”, the Kd in [5] is 1200 nM; in [3] it was 10500 nM.

With “Pin1^S16A (from UniProt Q13526 1-163) (enzyme)”, the Kd in data set [2] turned out to be 1200 nM.

Turning to “GST-WW-domain of Pin1 (from UniProt Q13526 1-54)”, the Kd in data set [8] came to 2200 nM; in data set [9], 1000 nM.

Take “Pin1 PPIase domain (amino acids 47-163) (from UniProt Q13526 47-163) (enzyme)”: the Kd in data set [3] was determined as 15000 nM.

In the case of “Pin1^Y23F (from UniProt Q13526 1-163) (enzyme)”, the dissociation constant (Kd) in [2] came to 5000 nM.

For “GST-Pin1 (from UniProt Q13526 1-163) (enzyme)”, the figures for the Kd in [5] and in data set [3] were 1200 nM and 13000 nM, respectively.

As to “GST-Pin1^S16E (from UniProt Q13526 1-163) (enzyme)”, the Kd in data set [3] worked out at 10500 nM.

On to “Nedd4 WW-domain-1 (from UniProt P46935 249-282)”, for which the fold reduction of binding against untreated lysates in data set [10] was 10 fold.

For the substance “Pin1 WW-domain (amino acids 1-54) (from UniProt Q13526 1-54)”, the Kd in data set [5] came out at 1000 nM; in [11], 1200 nM.

In the case of “Nedd4 WW-domain-2 (from UniProt P46935 405-438)”, the fold reduction of binding against untreated lysates in data set [10] turned out to be 10 fold. The equilibrium dissociation constant (Kd) was determined as 20000 nM in data set [8] and 10000 nM in data set [9].

In the case of “GST-Pin1^S18E (from UniProt Q13526 1-163) (enzyme)”, the equilibrium dissociation constant (Kd) in data set [5] was found to be 1000 nM; in data set [3], 12000 nM.

As to “GST-Pin1^Y23A (from UniProt P08515 1-218; Q13526 1-163) (enzyme)”, the Kd in data set [3] was 13500 nM.

Turning to “GST-Pin1^R14A (from UniProt Q13526 1-163) (enzyme)”, the Kd was 2000 nM in data set [5] and 13500 nM in data set [3].

Take “Cdc25C, in vitro translated (35S-Met), phosphorylated by Xenopus mitotic extracts”: the “dephosphorylation of the bound Cdc25C by calf intestine phosphatase (CIP)” value with GST-WW-domain of Pin1 was “When mitotically phosphorylated Cdc25C was precipitated using GST beads containing Pin1 or its WW-domain, CIP failed to dephosphorylate Cdc25C”.
